B1: 9-1 (VHH)
VHH: EVQLVESGGGLVQPGGSLRLSCAASGRTFSRLAMGWFRQAPGKEREFVAAISRSGRSTSYADSVKGRFTISADNSKNTAYLQMNSLKPEDTAVYYCAARRSQILFTSRTDYEWGQGTLVTVSS
B2: variant 6-52 (Fc fusion)
VHH: EVQLVESGGGLVQPGGSLRLSCAASGDTYGSYWMGWFRQAPGKEREVVAAITSGGSTVYADSVKGRFTISADNSKNTAYLQMNSLKPEDTAVYYCARVDSRFDYWGQGTLVTVSS
B3: 10-26 (VHH)
VHH: EVQLVESGGGLVQPGGSLRLSCAASGRTFSGFTMSSTWMGWFRQAPGKEREFVAGIITNGSTNYADSVKGRFTISADNSKNTAYLQMNSLKPEDTAVYYCARRVAYSSFWSGLRKHMDVWGQGTLVTVSS
B4: variant 6-103 (Fc fusion)
VHH: EVQLVESGGGLVQPGGSLRLSCAASGRTSSPIAMGWFRQAPGKEREPVAVRWSDDYTYYADSVKGRFTISADNSKNTAYLQMNSLKPEDTAVYYCAKKLGGYYAFDIWGQGTLVTVSS
B5: variant 6-63 (Fc fusion)
VHH: EVQLVESGGGLVQPGGSLRLSCAASGQTFNMGWFRQAPGKEREFVAAIGSGGSTSYADSVKGRFTISADNSKNTAYLQMNSLKPEDTAVYYCWRLGNDYFDYWGQGTLVTVSS
notes: also called VHH nanobody 6-63
B6: 10-47 (VHH)
VHH: EVQLVESGGGLVQPGGSLRLSCAASGRPLRRYVMGWFRQAPGKEREFVAAITNGGSTKYADSVKGRFTISADNSKNTAYLQMNSLKPEDTAVYYCARGTPWRLLWFGTLGPPPAFDYWGQGTLVTVSS
B7: 10-52 (VHH)
VHH: EVQLVESGGGLVQPGGSLRLSCAASGRFFSICSMGWFRQAPGKEREFVAGINWRSGGSTYYADSVKGRFTISADNSKNTAYLQMNSLKPEDTAVYYCARGSGWWEYWGQGTLVTVSS
B8: 10-48 (VHH)
VHH: EVQLVESGGGLVQPGGSLRLSCAASGRTFRRYAMGWFRQAPGKEREFVAAINRSGSTEYADSVKGRFTISADNSKNTAYLQMNSLKPEDTAVYYCARQHQDFWTGYYTVWGQGTLVTVSS
B9: 10-40 (VHH)
VHH: EVQLVESGGGLVQPGGSLRLSCAASGRTFSTYTMGWFRQAPGKEREFVARIWRSGGNTYYADSVKGRFTISADNSKNTAYLQMNSLKPEDTAVYYCARGVRGVFRAYFDHWGQGTLVTVSS
B10: 10-50 (VHH)
VHH: EVQLVESGGGLVQPGGSLRLSCAASGRTLSTYNMGWFRQAPGKEREFVASISRFGRTNYADSVKGRFTISADNSKNTAYLQMNSLKPEDTAVYYCARRGKLSAAMHWFDPWGQGTLVTVSS
B11: 10-45 (VHH)
VHH: EVQLVESGGGLVQPGGSLRLSCAASGRTFSWYPMGWFRQAPGKEREFVASISWGGARTYYADSVKGRFTISADNSKNTAYLQMNSLKPEDTAVYYCARSTGPRGSGRYRAHWFDSWGQGTLVTVSS
B12: 10-41 (VHH)
VHH: EVQLVESGGGLVQPGGSLRLSCAASGRNLRMYRMGWFRQAPGKEREFVALISRVGVTSYADSVKGRFTISADNSKNTAYLQMNSLKPEDTAVYYCARGTSFFNFWSGSLGRVGFDSWGQGTLVTVSS
B13: variant 6-5 (Fc fusion)
VHH: EVQLVESGGGLVQPGGSLRLSCAASGRTFTMGWFRQAPGKEREFVASTNSAGSTNYADSVNGRFTISADNSKNTAYLQMNSLKPEDTAVYYCTTVDQYFDYWGQGTLVTVSS
B14: 10-18 (VHH)
VHH: EVQLVESGGGLVQPGGSLRLSCAASGRMYNSYSMGWFRQAPGKEREFVARISPGGTFYADSVKGRFTISADNSKNTAYLQMNSLKPEDTAVYYCTTSARSGWFWRYFDSWGQGTLVTVSS
B15: 10-31 (VHH)
VHH: EVQLVESGGGLVQPGGSLRLSCAASGRTFGSYGMGWFRQAPGKEREFVATISIGGRTYYADSVKGRFTISADNSKNTAYLQMNSLKPEDTAVYYCARGSGSGFMWYHGNNNYDRWRYWGQGTLVTVSS
B16: 9-8 (VHH)
VHH: EVQLVESGGGLVQPGGSLRLSCAASGRTFRRYPMGWFRQAPGKEREFVAAISRSGGSTYYADSVKGRFTISADNSKNTAYLQMNSLKPEDTAVYYCAAKRLRSFASGGSYDWGQGTLVTVSS
B17: 10-22 (VHH)
VHH: EVQLVESGGGLVQPGGSLRLSCAASGRTYYAMGWFRQAPGKEREFVGAIDWSGRRITYADSVKGRFTISADNSKNTAYLQMNSLKPEDTAVYYCARVRFSRLGGVIGRPIDSWGQGTLVTVSS
B18: variant 6-37 (Fc fusion)
VHH: EVQLVESGGGLVQPGGSLRLSCAASGHTFSTSWMGWFRQAPGKEREFVATINSLGGTNYADSVKGRFTISADNSKNTAYLQMNSLKPEDTAVYYCARVSSGDYGMDVWGQGTLVTVSS
B19: 10-13 (VHH)
VHH: EVQLVESGGGLVQPGGSLRLSCAASGGLTFSSNTMGWFRQAPGKEREFVASISSSGRTSYADSVKGRFTISADNSKNTAYLQMNSLKPEDTAVYYCARRVRRLWFRSYFDLWGQGTLVTVSS
B20: variant 6-2 (Fc fusion)
VHH: EVQLVESGGGLVQPGGSLRLSCAASGFTMSSSWMGWFRQAPGKEREFVTVISGVGTSYADSVKGRFTISADNSKNTAYLQMNSLKPEDTAVYYCARGPDSSGYGFDYWGQGTLVTVSS
B21: 10-42 (VHH)
VHH: EVQLVESGGGLVQPGGSLRLSCAASGITIRTHAMGWFRQAPGKEREFVATISRSGGNTYYADSVKGRFTISADNSKNTAYLQMNSLKPEDTAVYYCTTAGVLRYFDWFRRPYWGQGTLVTVSS
B22: 10-54 (VHH)
VHH: EVQLVESGGGLVQPGGSLRLSCAASGRTFSSARMGWFRQAPGKEREFVAGINMISSTKYADSVKGRFTISADNSKNTAYLQMNSLKPEDTAVYYCAHFRRFLPRGYVDYWGQGTLVTVSS
B23: 10-28 (VHH)
VHH: EVQLVESGGGLVQPGGSLRLSCAASGSIFSIGMGWFRQAPGKEREFVARIWWRSGATYYADSVKGRFTISADNSKNTAYLQMNSLKPEDTAVYYCAAISIFGRLKWGQGTLVTVSS
B24: 10-57 (VHH)
VHH: EVQLVESGGGLVQPGGSLRLSCAASGRTFSRYAMGWFRQAPGKEREFVASITKFGSTNYADSVKGRFTISADNSKNTAYLQMNSLKPEDTAVYYCAKERESRFLKWRKTDWGQGTLVTVSS

Columns and labels:
[1] = target: SARS-CoV-2 membrane protein on expressing cells (SARS-CoV-2, UniProt P0DTC5 1-222)
[2] = target: T1, Acro SARS-CoV-2 (COVID-19) S1 protein (SARS-CoV-2, UniProt P0DTC2 16-685); assay: SPR
T1 construct: also called SARS-CoV-2 S1

| Binder | MFI Ratio [1] | Kd [2] |
| --- | --- | --- |
| B1 | 8.19 |  |
| B2 |  | 0.0312 µM |
| B3 | 5.2 |  |
| B4 |  | 0.0236 µM |
| B5 |  | 0.0218 µM |
| B6 | 1.62 |  |
| B7 | 4.11 |  |
| B8 | 4.11 |  |
| B9 | 3.78 |  |
| B10 | 1.72 |  |
| B11 | 6.69 |  |
| B12 | 1.75 |  |
| B13 |  | 0.0249 µM |
| B14 | 8.06 |  |
| B15 | 1.66 |  |
| B16 | 3.76 |  |
| B17 | 4.47 |  |
| B18 |  | 0.0225 µM |
| B19 | 8.83 |  |
| B20 |  | 0.0299 µM |
| B21 | 1.74 |  |
| B22 | 1.78 |  |
| B23 | 2.06 |  |
| B24 | 1.79 |  |

From US20210355194A1 (TWIST BIOSCIENCE, published 2021)
